Source: patent US20220177587A1, “METHODS AND USES OF VARIANT CD80 FUSION PROTEINS AND RELATED CONSTRUCTS” (Alpine Immune Sciences, Inc., priority 2018, published 2022)

What was measured:
human CTLA-4 (human) [1] = target: human CTLA-4 (human) (UniProt P16410); assay: flow cytometry, Expi293F cells transfected with CTLA-4
CD28 (human) [2] = target: CD28 (human) (UniProt P10747); assay: flow cytometry, Expi293F cells transfected with CD28
[3] = target: CD28, endogenously expressed on Jurkat/IL2 reporter cells (human) (UniProt P10747); assay: flow cytometry on Jurkat/IL2 reporter cells (endogenous CD28), 33.3 nM Fc fusion, PE anti-human Fc
[4] = target: human PD-L1 (huPD-L1), on stably transduced CHO cells (human) (UniProt Q9NZQ7); assay: flow cytometry on CHO cells stably expressing huPD-L1, 33.3 nM Fc fusion, PE anti-human Fc
PD-L1 (human) [5] = target: PD-L1 (human) (UniProt Q9NZQ7); assay: flow cytometry, Expi293F cells transfected with PD-L1
PD-L1 (human) [6] = target: PD-L1 (human) (UniProt Q9NZQ7); assay: flow cytometry, CHO cells expressing huPD-L1
Target sequence in this assay (Q9NZQ7 19-290): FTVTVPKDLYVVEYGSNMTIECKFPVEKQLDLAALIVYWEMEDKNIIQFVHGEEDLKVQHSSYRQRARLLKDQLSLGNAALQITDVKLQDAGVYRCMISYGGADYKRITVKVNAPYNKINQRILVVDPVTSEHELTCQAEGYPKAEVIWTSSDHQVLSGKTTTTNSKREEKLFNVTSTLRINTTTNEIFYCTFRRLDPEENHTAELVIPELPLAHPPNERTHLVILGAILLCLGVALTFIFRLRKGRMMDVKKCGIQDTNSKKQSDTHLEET

human CTLA-4 (human) [7] = target: human CTLA-4 (human) (UniProt P16410); assay: flow cytometry, CHO cells expressing huCTLA4
Target sequence in this assay (P16410 36-223): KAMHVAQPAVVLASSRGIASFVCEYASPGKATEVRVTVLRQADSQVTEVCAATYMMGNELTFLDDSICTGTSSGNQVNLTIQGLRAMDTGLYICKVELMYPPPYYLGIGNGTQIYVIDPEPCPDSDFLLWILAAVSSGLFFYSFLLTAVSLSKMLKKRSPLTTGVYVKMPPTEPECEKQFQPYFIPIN

[8] = target: human CTLA-4 (huCTLA4), on stably transduced CHO cells (human) (UniProt P16410); assay: flow cytometry on CHO cells stably expressing huCTLA4, 33.3 nM Fc fusion, PE anti-human Fc
human CTLA-4 (huCTLA4), on stably transduced CHO cells (human), sequence (P16410 36-223): as above

PD-L1 (human) [9] = target: PD-L1 (human) (UniProt Q9NZQ7)
Target sequence in this assay (Q9NZQ7 19-290): as the sequence (Q9NZQ7 19-290) above

CD28 (human) [10] = target: CD28 (human) (UniProt P10747)
CD28 (human) [11] = target: CD28 (human) (UniProt P10747); remark: listed apart in the source

Question: Which results are given for “CD80 R29H/E52G/D90N/I118V/T120S/T130A ECD-Fc (Fc fusion)”?
Answer: MFI (human CTLA-4 (human) [1]): 141 MFI; MFI (CD28 (human) [2]): 66 MFI

Question: Which MFI at 33.3 nM [3] does the source give for WT CD80 ECD-Fc H22.6 (Fc fusion) here?
Answer: Its MFI at 33.3 nM is 43 MFI.

Question: What about the MFI at 33.3 nM [4] of the same substance?
Answer: The MFI at 33.3 nM was 46.3 MFI.

Question: Which MFI (human CTLA-4 (human) [1]) does the source give for “CD80 T28S/L70Q/A91G/E95K/I118V/T120S/I126V/T130A/K169E ECD-Fc (Fc fusion)” here?
Answer: Its MFI is 65 MFI.

Question: What about the parental ratio (human CTLA-4 (human) [1]) of the same substance?
Answer: The parental ratio was 0.31.

Question: And the MFI (CD28 (human) [2])?
Answer: Its MFI is 32 MFI.

Question: What about the parental ratio (CD28 (human) [2]) of the same substance?
Answer: The parental ratio was 0.34.

Question: And the MFI (PD-L1 (human) [5])?
Answer: Its MFI is 6 MFI.

Question: What about the parental ratio (PD-L1 (human) [5]) of the same substance?
Answer: Its parental ratio is 0.08.

Question: What does the source list for “CD80 E24G/L25P/L70Q/A91G/I118V/T120S/N152T ECD-Fc (Fc fusion)”?
Answer: MFI (human CTLA-4 (human) [1]): 38 MFI; MFI (CD28 (human) [2]): 26 MFI

Question: How did the MFI (human CTLA-4 (human) [1]) turn out when “CD80 K54M/L70Q/A91G/Y164H ECD-Fc (SEQ ID NO 1399) (Fc fusion)” was run?
Answer: Its MFI is 131 MFI.

Question: And the parental ratio (human CTLA-4 (human) [1])?
Answer: Its parental ratio is 0.63.

Question: And the MFI (CD28 (human) [2])?
Answer: The MFI was 68 MFI.

Question: And the parental ratio (CD28 (human) [2])?
Answer: Its parental ratio is 0.71.

Question: What about the MFI (PD-L1 (human) [5]) of the same substance?
Answer: The MFI was 5 MFI.

Question: And the parental ratio (PD-L1 (human) [5])?
Answer: The parental ratio was 0.08.

Question: Which results are given for “variant CD80 IgV-Fc E35D/M38T/M43V/M47V/N48R/L85Q (Fc fusion)”?
Answer: MFI at 33.3 nM (PD-L1 (human) [6]): 21800 MFI; MFI at 33.3 nM (human CTLA-4 (human) [7]): 204000 MFI

Question: With CD80 L70Q/A91G/N144D ECD-Fc (Fc fusion) as the substance, how does the MFI (PD-L1 (human) [5]) read?
Answer: The MFI was 6 MFI.

Question: Which results are given for “variant CD80 IgV-Fc H18Y/E35D (Fc fusion)”?
Answer: MFI at 33.3 nM [3]: 479 MFI; MFI at 33.3 nM [8]: 26300 MFI; MFI at 33.3 nM [4]: 3530 MFI

Question: “variant CD80 IgV-Fc E35D/M47V/I61V/L85M (Fc fusion)” was tested. Which MFI at 33.3 nM [3] did it give?
Answer: Its MFI at 33.3 nM is 274 MFI.

Question: And the MFI at 33.3 nM [8]?
Answer: Its MFI at 33.3 nM is 28800 MFI.

Question: And the MFI at 33.3 nM [4]?
Answer: Its MFI at 33.3 nM is 3050 MFI.

Question: What does the source list for “variant CD80 IgV-Fc I30V/E35D/M47V/A71G/A91V (Fc fusion)”?
Answer: MFI at 33.3 nM (PD-L1 (human) [6]): 43900 MFI; MFI at 33.3 nM (human CTLA-4 (human) [7]): 205000 MFI

Question: Which MFI at 33.3 nM [8] does the source give for “variant CD80 IgV-Fc E35D/M43I/M47L/L85M (Fc fusion)” here?
Answer: Its MFI at 33.3 nM is 24600 MFI.

Question: And the MFI at 33.3 nM [4]?
Answer: The MFI at 33.3 nM was 4880 MFI.

Question: Which results are given for “CD80 A26E/E35D/M47L/L85Q IgV-Fc (effector) (Fc fusion)”?
Answer: Jurkat/IL2 reporter RLU at 50 nM, K562/OKT3/PD-L1 aAPC (PD-L1 (human) [9]): 2640 RLU; Jurkat/IL2 reporter RLU at 50 nM, K562/OKT3/PD-L1 aAPC (CD28 (human) [10]): 2640 RLU; Jurkat/IL2 reporter RLU at 50 nM, K562/OKT3 aAPC without PD-L1 (CD28 (human) [10]): 1330 RLU

Question: “CD80 M38V/T41D/M43I/W50G/D76G/V83A/K89E/I118V/T120S/I126V/T130A ECD-Fc (Fc fusion)” was tested. Which MFI (CD28 (human) [2]) did it give?
Answer: Its MFI is 5 MFI.

Question: Which results are given for “CD80 E35D/M47L IgV-Fc (effector) (Fc fusion)”?
Answer: Jurkat/IL2 reporter RLU at 50 nM, K562/OKT3/PD-L1 aAPC (PD-L1 (human) [9]): 5040 RLU; Jurkat/IL2 reporter RLU at 50 nM, K562/OKT3/PD-L1 aAPC (CD28 (human) [10]): 5040 RLU; Jurkat/IL2 reporter RLU at 50 nM, K562/OKT3 aAPC without PD-L1 (CD28 (human) [10]): 8680 RLU; IL-2 release, primary T cells + K562/OKT3 (No PD-L1), 100 nM (CD28 (human) [11]): 26800

Question: For “variant CD80 IgV-Fc E35D/M47V/T62A/A71D/K93E (Fc fusion)”, which MFI at 33.3 nM (PD-L1 (human) [6]) is on record?
Answer: Its MFI at 33.3 nM is 693 MFI.

Question: And the MFI at 33.3 nM (human CTLA-4 (human) [7])?
Answer: The MFI at 33.3 nM was 226000 MFI.

Question: How did the MFI at 33.3 nM [8] turn out when “variant CD80 IgV-Fc E35D/M43I/D46E/A71G/L85M (Fc fusion)” was run?
Answer: Its MFI at 33.3 nM is 26900 MFI.

Question: What about the MFI at 33.3 nM [4] of the same substance?
Answer: Its MFI at 33.3 nM is 7140 MFI.

Question: How did the MFI at 33.3 nM [3] turn out when “variant CD80 IgV-Fc E35D/M47V/L85M/R94Q (Fc fusion)” was run?
Answer: The MFI at 33.3 nM was 23.7 MFI.

Question: What about the MFI at 33.3 nM [8] of the same substance?
Answer: Its MFI at 33.3 nM is 23300 MFI.

Question: What does the source list for “CD80 E35D/M43L/L70M IgV-Fc (effector) (Fc fusion)”?
Answer: Jurkat/IL2 reporter RLU at 50 nM, K562/OKT3/PD-L1 aAPC (PD-L1 (human) [9]): 2780 RLU; Jurkat/IL2 reporter RLU at 50 nM, K562/OKT3/PD-L1 aAPC (CD28 (human) [10]): 2780 RLU; Jurkat/IL2 reporter RLU at 50 nM, K562/OKT3 aAPC without PD-L1 (CD28 (human) [10]): 1570 RLU; IL-2 release, primary T cells + K562/OKT3 (No PD-L1), 100 nM (CD28 (human) [11]): 10500

Question: Which Jurkat/IL2 reporter RLU at 50 nM, K562/OKT3/PD-L1 aAPC (PD-L1 (human) [9]) does the source give for “CD80 H18Y/A26T/E35D/A71D/L85Q IgV-Fc (effector) (Fc fusion)” here?
Answer: Its Jurkat/IL2 reporter RLU at 50 nM, K562/OKT3/PD-L1 aAPC is 5220 RLU.

Question: And the Jurkat/IL2 reporter RLU at 50 nM, K562/OKT3/PD-L1 aAPC (CD28 (human) [10])?
Answer: Its Jurkat/IL2 reporter RLU at 50 nM, K562/OKT3/PD-L1 aAPC is 5220 RLU.

Question: And the Jurkat/IL2 reporter RLU at 50 nM, K562/OKT3 aAPC without PD-L1 (CD28 (human) [10])?
Answer: The Jurkat/IL2 reporter RLU at 50 nM, K562/OKT3 aAPC without PD-L1 was 8750 RLU.

Question: What about the IL-2 release, primary T cells + K562/OKT3 (No PD-L1), 100 nM (CD28 (human) [11]) of the same substance?
Answer: The IL-2 release, primary T cells + K562/OKT3 (No PD-L1), 100 nM was 20600.

Question: With “CD80 K36E/I67T/L70Q/A91G/I118V/T120S/T130A/N152T ECD-Fc (Fc fusion)” as the substance, how does the MFI (CD28 (human) [2]) read?
Answer: Its MFI is 8 MFI.

Question: Which MFI (human CTLA-4 (human) [1]) does the source give for “CD80 R29H/E52G/L70R/E88G/A91G/T130A ECD-Fc (Fc fusion)” here?
Answer: Its MFI is 119 MFI.

Question: And the parental ratio (human CTLA-4 (human) [1])?
Answer: The parental ratio was 0.57.

Question: What about the MFI (CD28 (human) [2]) of the same substance?
Answer: The MFI was 100 MFI.

Question: What about the MFI (PD-L1 (human) [5]) of the same substance?
Answer: Its MFI is 5 MFI.

Question: And the parental ratio (PD-L1 (human) [5])?
Answer: Its parental ratio is 0.08.

Question: With “variant CD80 IgV-Fc E35D/N48K/L72V (Fc fusion)” as the substance, how does the MFI at 33.3 nM [3] read?
Answer: Its MFI at 33.3 nM is 582 MFI.

Question: What about the MFI at 33.3 nM [4] of the same substance?
Answer: Its MFI at 33.3 nM is 3030 MFI.

Question: Which Jurkat/IL2 reporter RLU at 50 nM, K562/OKT3/PD-L1 aAPC (PD-L1 (human) [9]) does the source give for WT CD80 IgV-Fc (Fc fusion) here?
Answer: Its Jurkat/IL2 reporter RLU at 50 nM, K562/OKT3/PD-L1 aAPC is 663 RLU.

Question: What about the Jurkat/IL2 reporter RLU at 50 nM, K562/OKT3/PD-L1 aAPC (CD28 (human) [10]) of the same substance?
Answer: Its Jurkat/IL2 reporter RLU at 50 nM, K562/OKT3/PD-L1 aAPC is 663 RLU.

Question: And the Jurkat/IL2 reporter RLU at 50 nM, K562/OKT3 aAPC without PD-L1 (CD28 (human) [10])?
Answer: The Jurkat/IL2 reporter RLU at 50 nM, K562/OKT3 aAPC without PD-L1 was 1250 RLU.

Question: What does the source list for “CD80 L65H/D90G/T110A/F116L ECD-Fc (Fc fusion)”?
Answer: MFI (human CTLA-4 (human) [1]): 121 MFI; MFI (CD28 (human) [2]): 33 MFI
